From patent publication US20180339057A1 (Novo Nordisk, published 2018)
Substitutions are numbered along the chain they refer to.

B1: Compound 10 (ligand)
chain: SEPATSGSETPGTSESATPESGPGTSTEPSEGARGDHCPLGPGRCCRLHTVRASLEDLGWADWVLSPREVQVTMCIGACPSQFRAANLHAQIKTSLHRLKPDTVPAPCCVPASYNPLVLIQKTDTGVSLQTYDDLLAKDCHCI
modifications: alpha-amino group of the N-terminal Ser-32 (residue 1 of SEQ ID NO: 164): N-[4-[[[2-[2-[2-[[2-[2-[2-[[(4S)-4-carboxy-4-(17-carboxyheptadecanoylamino)butanoyl]amino]ethoxy]ethoxy]acetyl]amino]ethoxy]ethoxy]acetyl]amino]methyl]phenyl]methyl (protractor of Example 10.1)
notes: homodimer with one protractor on each of the two N-terminal extensions; also called Formula A (C18)
B2: Compound 15 (ligand)
chain 1: B1 chain with K100R, K122R, K138R
chain 2: B1 chain with K100R, K122R, K138R
modifications: alpha-amino group of the N-terminal Ser-32 (residue 1 of SEQ ID NO: 312): N-[4-[[[2-[2-[2-[[2-[2-[2-[[(4S)-4-carboxy-4-(17-carboxyheptadecanoylamino)butanoyl]amino]ethoxy]ethoxy]acetyl]amino]ethoxy]ethoxy]acetyl]amino]methyl]phenyl]methyl (protractor of Example 10.1)
notes: also called monoalkylated
B3: Macrophage Inhibitory Cytokine-1 (MIC-1), human wild type, monomer sequence SEQ ID NO:1 (ligand)
chain: ARNGDHCPLGPGRCCRLHTVRASLEDLGWADWVLSPREVQVTMCIGACPSQFRAANMHAQIKTSLHRLKPDTVPAPCCVPASYNPMVLIQKTDTGVSLQTYDDLLAKDCHCI
notes: covalently linked homodimer; 112 amino acid monomer = residues 197-308 of the precursor; also called wtMIC-1

Columns and labels:
[1] = target: T1, human MIC-1 receptor (hGFRAL, GDNF family receptor alpha like), full length (human, UniProt Q6UXV0 19-394); test: cell-based or functional assay
T1 sequence (looked up): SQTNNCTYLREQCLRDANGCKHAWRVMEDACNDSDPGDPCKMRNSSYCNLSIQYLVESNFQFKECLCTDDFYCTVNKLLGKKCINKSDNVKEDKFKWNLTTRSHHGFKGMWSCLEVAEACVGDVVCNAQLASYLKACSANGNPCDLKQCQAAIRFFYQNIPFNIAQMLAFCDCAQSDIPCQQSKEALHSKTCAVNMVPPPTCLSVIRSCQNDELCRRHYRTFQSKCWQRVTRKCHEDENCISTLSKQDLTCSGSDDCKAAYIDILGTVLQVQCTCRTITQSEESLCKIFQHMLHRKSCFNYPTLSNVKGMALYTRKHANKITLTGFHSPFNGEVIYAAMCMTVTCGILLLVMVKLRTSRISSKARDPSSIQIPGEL

[2] = target: T1, human MIC-1 receptor (hGFRAL, GDNF …); test: SPA: displacement of 50 pM human [125I]-MIC-1 from BHK21-hGFRAL-IRES-hRET cell membranes
Experimental: Binding potencies of MIC-1 compounds were calculated by IC50 of displacement curves.
BHK21-hGFRAL-IRES-hRET cells were cultured at +37° C. in a humidified atmosphere with 5% CO₂ in complete medium consisting of DMEM with high glucose and sodium pyrovate, heat inactivated 10% Fetal Bovine Serum, 1% Penicillin-Streptomycin, 1 mg/ml G418-Geneticin and 400 ug/ml Hygromycin. Cells were washed twice in ice cold Dulbecco's phosphate-buffered saline (DPBS) and detached mechanically by scraping, transferred in ice cold DPBS into conical centrifuge tubes and centrifuged for 5 min at 1500 rpm at +20° C. Cell pellet was resuspended in a total amount of 10 ml ice cold homogenization buffer A (50 mM Tris, 2.5 mM EDTA, adjust pH7.4 with one EDTA-free protease inhibitor cocktail tablet/50 ml) and homogenized for 20 seconds. The homogenate was centrifuged at 16000 rpm in 20 minutes at +4° C. The supernatant was discarded and the pellet was reconstituted in 10 ml homogenization buffer B (50 mM Tris, 320 mM Sucrose, adjust pH 7.4 with one EDTA-free protease inhibitor cocktail tablet/50 ml) and homogenized for 20 seconds and centrifuged at 16000 rpm in 20 minutes at +4° C. This procedure was repeated one more time. The supernatant was discarded and the pellet was reconstituted in 3 ml homogenization buffer B and homogenized for 10 seconds at low speed. Protein concentration was determined by standard Bradford method and 1.5 mg protein/tube was aliquoted to cryotubes and stored at −80° C. Binding assays were performed in white 96-well plates in a total volume of 200 μl per well. Wheat germ agglutinin SPA beads were reconstituted in assay buffer (50 mM Tris/HCl, 4.5 mM MgCl₂, 0.02% Tween 20 and 0.25% Ovalbumin pH 7.4) and mixed with membrane preparation to give a final concentration of 0.5 mg SPA beads and 10 μg total protein per well. […] The plate was sealed and incubated at +22° C. for 2 hours in a plate shaker set at 350 rpm and thereafter centrifuged at 1500 rpm for 10 minutes prior to reading of SPA bead light emission.

[3] = target: T1, human MIC-1 receptor (hGFRAL, GDNF …); test: cell-based or functional assay; remark: listed apart in the source

Row | Binder | Luciferase + 0.1% HSA NNDK EC50 (pM) [1] [pM] | Luciferase NNDK EC50 (pM) [1] [pM] | IC50 [2] [nM] | Emax (%) [3] [%] | pERK EC50 (nM) [3] [nM]
1 | B1 | 146 | 71 | 20 |  | 
2 | B2 | 39 | 61 | 39 |  | 
3 | B3 | 36 | 59 | 0.67 | 100 | 0.3
